Experimental data reported in a protein production outcome set (Wang et al. 2014).

Test: label from the status in PepcDB records

| Sequence | protein production |
| --- | --- |
| MGENVLICLCGSVNSINISHYIIELKSKFDEVNVIASTNGRKFINGEILKQFCDNYYDEFEDPFLNHVDIANKHDKIIILPATSNTINKIANGICDNLLLTICHTAFEKLSIFPNMNLRMWENPVTQNNIRLLKDYGVSIYPANISESYELASKTFKKNVVAPEPYKVLEFI | not failed |
| MEQNNIKEQLISFFNQACSTHQERLDFICSTRESDTFSSVDVPLEPIKNIIEITKDENQQIEITKIAVNNIKTLSSVGATGQYMASFFSTNSEPAIIFCVIYFLYHFGFLKDNNKKQIIKKAYETIADNIADYLNEN | not failed |
| MEEFAVVIIGAGPAGGQCARQLAQQGVRVLLVEQHSNFSQNNYSSAASPLETMALFDLPPGVVARYWRNLAIAATEKEQIWYSDQPRGVVFDFAKLRQFLADTVTKAGGQVWLGHRFWGYQQVGDGLEVTLRRSSKNSLSSDSVEKVEKVTVKTQVLIDATGSKRAVINCGQPKATDNNQYYRGIGTEYLITVDETTHQRFADTLVFFLGYRWSPQGYSWIFPMDNHQLKVGTAIFAGQHRYLGELKPLRSYTEAIIRDYLKLEKSQYHLEEIHGSVLDYAVNQGDTYHRGSVLAIGDAVSTVNFLGGEGIRHGMQGANIAVPFVADYLRGHVQAFEKYEQAMKAHFAEPWQRTEKLSQRVYLEFGDRQIDLGVTYLSYLRYDDVLDLLFHYRFDRIYGGITPLLLKKVAQFSQQCRQWLRKLSPLEHHHHHH | failed |
| MPSPSGSSTLSKPAPRFASIGSPYFGIMLAIMAVVLILSNIGASKGVVLGPIITDGGFFLFPLAYILGDVMSEVYGFKVARKAIITSFALSVFASLCYWIIIVLPGFNDEYGTAKQAAIEGALGPVPLIVLGSLLAFLAGQTINSWILVKMKARTGEKSLWARLMGSSVVGEFVDTLIFCSIAASVIGITDFGSFLNYVLVGFVYKTAVEFLFVPVTVLVVGWIKKREPSYGVVAA | failed |
| MYRDIATKLVAAIQDGIFTVKLPTEAQLMERYQASRNTIRKAIDLVYQQGLLRRVQGSGYYITNIQLQHKTVVNLSARSLFNSHVHPRTLTSKILTFDTIHGDSALSRKLNIPVDEELYRIIRLRYWHDQLYCLEKAYYLRSVVPYLSTEAVNTSIWDFINEAYGIGIANSDDYLSLTNLNKEEAELMNLAQGATHLALDSCNYYKNNGLLDFSHTIFVYPDLALYFHTTNLANN | failed |
| MSSHPYVTQQNTPLADDTTLMSTTDLQSYITHANDTFVQVSGYTLQELQGQPHNMVRHPDMPKAAFADMWFTLKKGEPWSGIVKNRRKNGDHYWVRANAVPMVREGKISGYMSIRTRATDEE | failed |
| MRGPFMGFSIEFGEANLDKLGVRRTSERVSQPPLTLKNYALSRSIGRGNTSDVRLATGPDGREVAIKLPLPATLRQHDAAERFGNEVRLTLQFRHPHVVRGFAGTPFGPGAFLALFYYPDGPLSNRLRGQPLPNEEALRILADIAAALAYLHRLGAVHQDVKPQNVYVSGGRAALGDLGSAYFVAQGSKTSGSPYYMAPEVYHGESTSSASDVYSLGVMAWELLTGARPFSGNSYEELMVAHLSRFPAPLASLRPELPRALSRLLDRTFAKRPHERPTADALRRALLEALGETPQEEDLPAEEVPLASQQAGRHTAAPRVTGPQGPAETPAQPERVRPARRGWNPFRRKG | failed |
| MVTPAQVARRAALWMLTSTVAFGLMAITIRLASSTIATAEIAFFRNAFGLLALLPLILRPGKPLPRTRQLPQYFARTLIGLASMLCGFWAIGHLPLSQAISLSYSTPLFVTVLAVVWLHEQVRLRRWLAVAAGFIGVLVILRPGSSTFTPGLLIALLAAVISAIVAIQIKQLSRSDDSDTVVFYTYVFWVPMSLIPALFQWTWPQGIGWVWLVATGIFGTAGQLFWTRALKLGEVSALQPISFMQLPLVALLGWWLFGEAIERHTVIGAAIIIGANVYIAHRETVLARRAATHAPVEGAKPGE | failed |
| MVRRRQTSETGLLRQLPLALLIWGLFSLMMWVPAVYALTLNDHPTSRSFFYAGILGLVVVTTISLARAGRPSRHGLLGQLAVLLSTFAVLPLFLAVPFHDALKTTSFLNAYFEMVSAITTTGAEMFPDPGRLSAPLHLWRAQVGWLGGLVMWIAASAILAPLSLGGFEVTAQGQPGRVLVGQGESVDPRGRLLRVAATLAPVYAGLTLVVAILLLAAGDSGLVAICHAMSVMATSGISPVGGLSGGASGLTGEAILFLFMFFALSRLTFSSDTAMRGHARLDQDPEFRIGLLILLGVPALLFLRHWSGAIDIASGENLTLALRALWGSLFTVMSFLSTTGFESTDWAEARQWSGLGTPGMILLGLSVIGGGVATTAGGVKLLRVYALYLNGTRELQRLVHPSSVSSATGRNRRIQRGGAFIAWVFFMLFAISLAAIALALAAAGSDFETAMVLSIATLSTTGPLIEIGAQEPIRLIEMPAAAKLILSGAMIIGRLETLAFIALITPALWRN | failed |
| NTITVSELLELIKKEDVIIVDTRSPREFKEETLPGAINIPLFLDDEHALIGKTYKQESREKAIEIATDIVEKSLKRILNEAKKLDRDKLIVVFCARGGMRSQTMALILQLLGFKVKRLIGGFKAFKHA | not failed |
| METLSDVFATFSQRGDTTAFVHRTGVRRYVFTYLDLHALSLRMNRWLADQGVGEGDRVVLWGPNSPWWAVAFWGIVTRGAVAVPVDFMSGAERAEIIAGLTDAKLVIQSRDKLDRLTGRPSVLLEELGFLLEAVEPLATTHRPAPDDMAELIYTSGTTGNPKGVILTHRNLVANILQVNRHIPVVTPDFSFLSLLPLSHMFEQMGGFFTPLYRGAAIVYIRTLKPSAIMEALGEEDIYAIIAVPRLLQLLKGSVERELEAKGLGSIFRWLLKVGERMSRGGRSVLFRPIQRKFGRNFALFVSGGAPLDPEVFRFWNGLGFRVVEGYGLTECSPVLTANTMERQVMGSVGTPLDGVELRLEEGEILARGDNIFPGYFRNEEATRGAFVDGWFRTGDLGELDPDGWLRIKGRSKELIVTGAGVNVYPDEIEAILNRTQGVREGCVIGLDRGKGEEVHGVLILDGSGRPTEEIVNEVNAKFDELHRITSFSVWPEAEFPKTTTLKIRKFQVKERIEQGGGALGDGRGADRLTALVATITGSPLEQVTEGALLVNDLGLTSIARLELVNALEMEFRLDLEDSVIGPQTRVADLREIVSRREKVHIREHFRIWAMGGVALAVRRLLDTVLHGPLLRAFVTLKSLGIENLEAADGPVMFVSNHLSYLDQPAIMCVLPDAWRYNTATAAWEEFFFRNFKNLPQRLWKRFTYEYASVAFTVFPLPQSRGFRGALHFMGTLADQGMNILLFPEGERSRDGRLLPFQQGLGVMIRELGVPVVPVRIRGLEKVLPRGASWPQKGEVSITFGKPIHFRGESPTEIVDRARRAVEDLLEHHHHHH | failed |
| MRDYATTAAGFDLQRTAAATLSGTLQALNACVECCDRHALPGRIALFWEGKDGSRASYTFSELKALSGRFANFLQAQGVRPGDCVAGLLPRTPELLVTILGAWRLGAVYQPLFTAFGPKAIEHRVATAGSKVLVTDAANRDKLDELADPPLAVTVGGPKGQGIRRGDFSFWAELERYPAEFEPVPRSGEDPFLMMFTSGTTGLAKPVPVPLKAILAFVGYLREAVDLRPEDAFWNLADPGWAYGLYYAVAGPLAMGHPTTFYEGPFSVESTCRIIRDYGITNLAGSPTAYRLLMAAGAAAETALKGRLRAVSSAGEPLTPEVIRWFADRLGTTIHDHYGQTELGMVLCNHHALAHPVRVGAAGFACPGHRVVVLDDDLNELPPGQPGILALDRRRSPLMWFPGYQGLETAAFVGDYYLSGDTVELNEDGSISFVGRADDVITTSGYRVGPFDVESALIEHPAVMEAAVIGKPDPERTELVKAFVVLCAGHRPTPELADALQRYVRQRLSAHAYPREIEFLEELPKTPSGKIQRFLLRNQEIARQREAAPRAAAAN | failed |
| MTKDRQIKKTKTAIYSAFIALLQKKEYSKITVRDMITLANVGRSTFYAHYESKEMLLKELCEELFHHLFRQKRNVTFEDYLVHILKHFEQNKDSIATLLLSNDPYFLLRFKNELEHDVYPNLRCKYIDKTTIPEVFLKQFVLSSFIETLKWWLHQRQRMSANELLKYYLELIK | failed |
| MGVVRPAEQQSRIAARRVALLEKVDYRLAETPAEREAIYRLRYRAYLKEGAIDANSSGIVTDRYDDLPNSWIFGVFYEGELSSSLRITVASPDHHDCPSMDVFPDFLQPWLAEGKVIVDPTRFVADPTSANRLPELPYLTLRLAYVSCEYFNADIGLASVRTEHQAFYRRVMMRS | failed |
| MEESRESPAEHGYYMPAEWDSHAQTWIGWPERQDNWRHNALPAQRVFADVAKAISKFEPVTVCASPAQWENARKQLPEDIRVVEMSMNDSWFRDSGPTFIVRKRPVKLSSLNRNIAGIDWNFNAWGGANDGCYNDWSHDLLVSRKILALERIPRFQHSMILEGGSIHVDGEGTCLVTEECLLNKNRNPHMSKEQIEEELKKYLGVQSFIWLPRGLYGDEDTNGHIDNMCCFARPGVVLLSWTDDETDPQYERSVEALSVLSNSIDARGRKIQVIKLYIPEPLYMTEEESSGITQDGEAIPRLAGTRLAASYVNFYIANGGIIAPQFGDPIRDKEAIRVLSDTFPHHSVVGIENAREIVLAGGNIHCITQQQPAEPTSVAENGH | not failed |
| MPVLLSRLASRTNPSLANRCAMDTWLRSAIDYISSWIEFQQTTIQQPGVIVAFAHRGEVVAEHAFGVANLDTGEKLTPRHRCRIASHSKSFTSAGIMKLREQRKLRLDDSVGQYVGGLHPRVAETTIAQLLSHSAGLTRDGADSGQFIDRRPYLNAEELLAELKLPTAIEPGTRFKYSNHGFGLLGLVIEAVTKEPYTAWIKREIIEPAGLRETEPDAPLPKGAAFARGHTRKVPLGERCVIPGDNPTHAMASATGFAATAADTARFFAQLAPNARKSVLSVASRREMTRHHWRIPQSFEAYYGLGIGAGKLDGWDWLGHGGHFQGYISRTCAIPACELAISIISNSIDGAAPFWMDGAMQILRTFKTRGAPDRRVRDWTGRWWTIWGATDLVPMGDRVLIANPQFNNPFMDAGEIEVTGRDTGRIAAAAGHSSHGEPVRRVRDARGKVSDIWLAGANVKPASVVAREIARQYPPRKRRPTP | failed |
| MRRQPKTRQESARMSIEAPETVVVSTWKVACDGGEGALGHPRVWLSIPHETGFVECGYCDRRYIHESFAAAKLEHHHHHH | not failed |
| MNRNKIAALIFAVSTVCVVSAHSENAYATEHKNSNQLEENNQTRSVKKGQVINVSTNLRIRKSPNTSSDVIGYLTNGEIFNIDGKEGSWYKINANGKVGYIHGDYVKEVTGNSNSSSNNSGSNSNLDTSLAGKKGTVVNVSTSLRVRQSPSTSSSVVGSLRGGQTFEIKGKSGSWYYINANGLTGYIHGDYVQVGENSSNNGGQSSGNNGQSSENNSGMDTSLAGKTGKVVNVSTSLRIRQSPSTSSSVVGSLSAGQTFKINGKNGAWYNIDAQGTKGHVHGDYVQVLSGNESSNSGSNNNQSGSQNNNLDESYNGKAGKVVNVTTNLRLRSQPSTSSSVLAYLLPNERFTLQGKTSSGWFKVNYNGKIGYLHEDYVKIVSSDEGANGNTGGSTGGGQVNQSKYEQVLSIMKSQIGSPYIYGGAGETLTSSLLSSLRRTFPDHAARGFYDIPSNYLNGNYRAFDCSGLMQWSFRQAGISLGRTTWDQINNGYEVSPSNAKPGDLLFFSNLGHVGMYIGNGQWIEAPNKGKFVSITSVPWSKIGRARRVL | failed |
| ELLKSGKAKDRFEGEENAPVTIVEYASLTCVHCAHFYNDVLPQIRKKYIKTGKVKLIFRDFAFDSRATAGFMLARCAPEDRYFPLIEVLFQKQSEWVWARDAVTPLKKIGLMAGFTDESFNACLKNQSILDEVNASFERGKELGVNATPTFFINGNKYEGAMSVEAFFSVIDSFLKN | not failed |
| EQVFQGKLTTVGNPKGNVTLVEFFDYQCIHCKKMASTIENLVKKDSGLRVIYKEFPIFGKTSDLASRVALAAGMQGKYQAMHNALITIDKRLDEKTVMDAAKSIGLDMQKLKKDMDSQEVTDILDANRQLAEKLHLMGTPAFIIGSTPDGQYKKGSEISFIPGATSEQSLRELIKKAAGN | failed |
